Assays:
in vivo = experiment: in vivo
Procedure: As a test substance, the compound is was used, and it was used after being dissolved in phosphate buffered saline such that the pharmaceutical concentration is 3 mg/mL.
For the test, a BN/CrlCrlj rat (Charles River Laboratories International, Inc., 5-week old) was used. It was placed on its back and fixed under general anesthesia, and by using a sonde for intratracheal administration (MicroSprayer (registered trademark) Aerosolizer Model IA-1B, manufactured by Penn-Century), intratracheal administration was performed with volume of 100 μL. As general anesthesia, inhalation of isoflurane (concentration of 3.0% and flow rate of 2.0 L/min) was employed.
Weight of the pulmonary tissue was measured and, after being added with an aqueous solution of ammonium formic acid (pH 6.0):methanol (3:2, v/v) at ratio of 40× (1 g: 40 mL), it was homogenated for about 1 minute under ice cooling by using a homogenizer. […] Meanwhile, the measurement was made with n=3 for each evaluation time point.
Each parameter of pharmacokinetics was calculated from a change in average content in pulmonary tissue. If there was an animal showing the measurement value of less than the lower limit of quantification, the average content in pulmonary tissue was calculated by substituting the value of 0 (zero) for it. The time t (hr) for calculating AUC0-t was the final time point at which the quantification can be made. Meanwhile, for calculation of the parameters of pharmacokinetics, non-compartmental analysis model analysis by WinNonlin Professional (registered trademark) Ver 5.2.1 was used. […] The results are shown in FIG. 2 and the following table.
The compounds vb obtained from Example 5 was evaluated in the same manner as the method described in (Test example B1) in terms of the persistent property of the pharmaceutical in a pulmonary tissue of a normal rat.
As a comparative control group, budesonide alone in the same amount as the compound vb, and a mixture of budesonide and chondroitin sulfate in the same amount as the compound vb were administered. Meanwhile, in the present measurement system, the lower detection limit of budesonide was 1 ng/mL. Meanwhile, the evaluation time points include three points, i.e., Hour 4, 24, and 72.

[1] = Blood kinetics (plasma drug concentration) in normal rat after intratracheal administration; format: in vivo
Procedure: The resultant was extracted with chloroform and methanol, and the extracted solution was measured by LC-MS/MS.

[2] = test system: rat antigen-induced asthma model; experiment: Rat antigen-induced asthma model, eosinophils in bronchoalveolar lavage fluid; format: in vivo; conditions: for number of eosinophils in bronchoalveolar lavage fluid, % of control: average value
Procedure: Intraperitoneal administration of 1 mL of aluminum hydroxide gel containing ovalbumin (1 mg/mL) was performed 3 times with one day interval. 14 Days after performing the first sensitization, intraperitoneal administration of 1 mL of aluminum hydroxide gel containing ovalbumin (1 mg/mL) was performed again followed by the second sensitization. 7 Days after the second sensitization, inhalation exposure of physiological saline (10 mg/mL) containing ovalbumin was performed by using a nebulizer five times with one day interval in order to induce asthma.
The 0.6 mg/mL prednisolone suspension was orally administered by using a sonde for oral administration under no anesthesia to have prednisolone amount of 3 mg/kg.
Meanwhile, the test was performed with n=6 to 12.
24 Hours after the fifth exposure, phosphate buffered saline (2 mL) containing 0.1% bovine serum albumin heated to 37° C. was injected to a bronchus of a rat under pentobarbital anesthesia and collected thereafter. This procedure was repeated 5 times to have bronchoalveolar lavage fluid. The bronchoalveolar lavage fluid was centrifuged for 3 minutes at 200×g and room temperature. The supernatant was discarded, and the pellet was re-suspended in phosphate buffered saline (500 μL) containing 0.1% bovine serum albumin.
Subsequently, a smear sample of the suspension was prepared followed by Diff-Quik staining. According to cell fractionation, ratio of eosinophil in white blood cells was calculated. According to integration with the number of white blood cells in bronchoalveolar lavage fluid, the number of […] in bronchoalveolar lavage fluid was calculated. Meanwhile, the number of white blood cells in bronchoalveolar lavage fluid was measured by using a blood cell counting chamber. The results are shown in FIG. 4 and the following table.
Dose responsiveness of the compound va in an OVA sensitized rat model was determined in the same manner as (Test example B2).
There were three doses for determination, i.e., 0.35 mg/kg, 3.5 mg/kg, and 35 mg/kg, such that the budesonide amount for administration is 0.1 mg/kg, 1 mg/kg, or 10 mg/kg.

OVA sensitized rat model = experiment: Dose responsiveness of budesonide alone in OVA sensitized rat model; format: in vivo; conditions: doses 0.01, 0.1, 1, 10 mg/kg to bronchus 1 hour before 4th and 5th OVA exposure
Procedure: Dose responsiveness of budesonide alone in an OVA sensitized rat model was determined.
There were four doses for determination, i.e., 0.01 mg/kg, 0.1 mg/kg, 1 mg/kg, and 10 mg/kg.
As a test system, a male BN rat was used. For OVA sensitization, 1 mL of Alum containing 1 mg/mL OVA was administered intraperitoneally. After the sensitization, physiological saline containing 10 mg/mL OVA was used for inhalation exposure, 5 times every 24 hours, by using a nebulizer. The test substance was administered to a bronchus 1 hour before the 4th and 5th inhalation exposure of OVA.
On Hour 24 after the final exposure, 2 mL of PBS containing 0.1% BSA (heated to 37° C.) was administered under pentobarbital anesthesia to a bronchus followed by recovery. This procedure was repeated 5 times to give bronchoalveolar lavage fluid (BALF).
BALF was centrifuged for 3 minutes at 200×g and room temperature. The supernatant was discarded, and the pellet was re-suspended in PBS (500 μL, heated to 37° C.) containing 0.1% BSA. Subsequently, a smear sample of the BALF was prepared followed by Diff-Quik staining. According to cell fractionation, ratio of eosinophil in white blood cells was calculated. According to integration with the number of white blood cells in BALF, the number of […] in BALF was calculated (number of white blood cells was measured by using blood cell counting chamber).

[3] = Drug dissociation test: polysaccharide derivative in buffer solution, 36°C, 1 week, HPLC; format: physicochemical
Procedure: In the examples relating to drug dissociation test, the drug dissociation ratio was evaluated as described below.
Sodium dihydrogen phosphate dihydrate (780 mg (5.0 mmol)) was dissolved in 500 mL of distilled water to give a liquid A. Separately, disodium hydrogen phosphate dodecahydrate (1.79 g (5.0 mmol)) was dissolved in 500 mL of distilled water to give a liquid B. By mixing the liquid A and liquid B at ratio of 2:3, a phosphate buffer solution of pH 7.5 was prepared.
0.62 g (10 mmol) of boric acid and 0.75 g (10 mmol) of potassium chloride were weighed and dissolved in 500 mL of distilled water to give a liquid C. Separately, by diluting 0.1 N sodium hydroxide solution with distilled water (×10 dilution), a liquid D was prepared.
50 mL of the liquid C and 7 mL of the liquid D were added to a 100 mL mess flask, and according to dilution to 100 mL with distilled water, a borate buffer solution of pH 8.0 was prepared. Furthermore, 50 mL of the liquid C and 40 mL of the liquid D were added to a 100 mL mess flask, and according to mess-up to 100 mL with distilled water, a borate buffer solution of pH 9.0 was prepared.
Each polysaccharide derivative obtained from above was dissolved in a buffer solution at each pH so as to have a concentration of 5 mg/10 mL, and heated for 1 week in an incubator at 36° C. Then, the drug dissociation ratio during the incubation was evaluated every 24 hours by liquid chromatography (HPLC).
The evaluation was performed by measuring the ratio between the drug amount remained in a polysaccharide derivative and the dissociated drug amount according to use of a size exclusion chromatography column (manufactured by TOSOH, TSKgel α-6000, 7.8 mmI.D.×30 cm).
Detailed conditions for the liquid chromatography are as follows.
Analysis time: 40 minutes
Solution for elution: acetonitrile (for HPLC):physiological saline=1:2
Detector: UV detector (240 nm)

[4] = BN/CrlCrlj, rat, plasma, inhaled or intranasal, 0.3 mg/animal
[5] = single intratracheal administration 100 μL, 7 days before the evaluation time point

For `C[C@H]1C[C@H]2[C@@H]3CCC4=CC(=O)C=C[C@]4(C)[C@@]3(F)[C@@H](O)C[C@]2(C)[C@@]1(O)C(=O)CO` [Betamethasone, betamethasone], the Tmax (in vivo; BN/CrlCrlj, rat, in vivo, inhaled or intranasal) was 4 h, the “time after administration until which exposure of betamethasone was observed in pulmonary tissue” value (in vivo; normal rat, intratracheal, final evaluation time point […], lower limit for quantification 10 ng/g) was 48 h and the Cmax [1, 4] was 1010 ng/mL. The Tmax [1, 4] was 0.5 h, the “course of plasma concentration (in words)” value ([1]; betamethasone in plasma, normal rat, intratracheal, lower limit of quantification 5 ng/mL) was “after 24 hours, it was lower than the lower limit for quantification” and the “number of eosinophils in bronchoalveolar lavage fluid, % of control” value (shortened to “number of eosinophils … % of control”) [2, 5] was 90.0 % of control.
For `CCCC1OC2CC3C4CCC5=CC(=O)C=CC5(C)C4C(O)CC3(C)C2(C(=O)COC(=O)CCCCCCCCCCCN)O1` (centres unmarked) [Compound xviiib, Budesonide 12-Aminododecylate], the solubility in water (Solubility in water) was “good solubility in water”.
For `C[C@]12C=CC(=O)C=C1CC[C@@H]1[C@@H]2[C@@H](O)C[C@@]2(C)[C@H]1CC[C@]2(O)C(=O)CO` [Prednisolone, prednisolone, reference compound], the “number of eosinophils … % of control” value ([2]; oral 3 mg/kg, five times, 30 minutes before inducing asthma, positive control) was 28.0 % of control.
In the case of `CCCC1O[C@@H]2C[C@H]3[C@@H]4CCC5=CC(=O)C=C[C@]5(C)[C@H]4[C@@H](O)C[C@]3(C)[C@]2(C(=O)CO)O1` (some centres unmarked) [budesonide], the concentration at 4 h (in vivo; BN/CrlCrlj, rat, in vivo) is reported as 471 ng/g, the concentration at 24 h (in vivo; BN/CrlCrlj, rat, in vivo) is reported as 0.3 ng/g and the concentration at 72 h (in vivo; BN/CrlCrlj, rat, in vivo) is reported as 0.1 ng/g. For the same compound, the “administration amount at which eosinophil inhibitory activity was shown” value (OVA sensitized rat model) was no less than 0.1 mg/kg.
With “Chondroitin Sulfate Introduced with 21-β-Alanyl-Betamethasone [Compound ia]” the “eosinophil infiltration compared to phosphate buffered saline group (in words)” value ([2]; Day 7 after single intratracheal administration) was “significantly suppressed eosinophil infiltration” and the “number of eosinophils … % of control” value [2, 5] was 56.8 % of control.
In the case of “Hyaluronic Acid Introduced with 21-β-Alanyl-Budesonide (880 kDa) [Compound via]”, the “Dissociation ratio (%/day)” value ([3]; pH 7.4, 36°C) is reported as 4.9 %/day, the drug dissociation ratio ([3]; pH 7.4, 36°C, day 0) is reported as 2.0% and the drug dissociation ratio ([3]; pH 7.4, 36°C, day 1) is reported as 9.6%. It also gave a drug dissociation ratio ([3]; pH 7.4, 36°C, day 2) of 16.8%, a drug dissociation ratio ([3]; pH 7.4, 36°C, day 3) of 18.3% and a drug dissociation ratio ([3]; pH 7.4, 36°C, day 4) of 21.7%. For the same compound, the drug dissociation ratio ([3]; pH 7.4, 36°C, day 5) was 23.9%, the drug dissociation ratio ([3]; pH 7.4, 36°C, day 6) was 30.9% and the drug dissociation ratio ([3]; pH 7.4, 36°C, day 7) was 34.3%. The “Dissociation ratio (%/day)” value ([3]; pH 8.0, 36°C) was 8.2 %/day, the drug dissociation ratio ([3]; pH 8.0, 36°C, day 0) was 0.9% and the drug dissociation ratio ([3]; pH 8.0, 36°C, day 1) was 15.0%. For the same compound, the drug dissociation ratio ([3]; pH 8.0, 36°C, day 2) was 20.4%, the drug dissociation ratio ([3]; pH 8.0, 36°C, day 3) was 26.4% and the drug dissociation ratio ([3]; pH 8.0, 36°C, day 4) was 39.9%. For the same compound, the drug dissociation ratio ([3]; pH 8.0, 36°C, day 5) was 46.2%, the drug dissociation ratio ([3]; pH 8.0, 36°C, day 6) was 52.6% and the drug dissociation ratio ([3]; pH 8.0, 36°C, day 7) was 57.1%.
With “Hyaluronic Acid Introduced with Proxyphylline [xxiib]” the “Dissociation ratio (%/day)” value ([3]; pH 7.4, 36°C) was 0.8 %/day, the drug dissociation ratio ([3]; pH 7.4, 36°C, day 0) was 0.0% and the drug dissociation ratio ([3]; pH 7.4, 36°C, day 1) was 0.7%. For the same compound, the drug dissociation ratio ([3]; pH 7.4, 36°C, day 2) was 1.3%, the drug dissociation ratio ([3]; pH 7.4, 36°C, day 3) was 2.2% and the drug dissociation ratio ([3]; pH 7.4, 36°C, day 4) was 2.8%. The drug dissociation ratio ([3]; pH 7.4, 36°C, day 5) was 3.6%, the drug dissociation ratio ([3]; pH 7.4, 36°C, day 6) was 4.4% and the drug dissociation ratio ([3]; pH 7.4, 36°C, day 7) was 5.3%. The “Dissociation ratio (%/day)” value ([3]; pH 8.0, 36°C) was 2.0 %/day, the drug dissociation ratio ([3]; pH 8.0, 36°C, day 0) was 0.0% and the drug dissociation ratio ([3]; pH 8.0, 36°C, day 1) was 2.1%. For the same compound, the drug dissociation ratio ([3]; pH 8.0, 36°C, day 2) was 4.6%, the drug dissociation ratio ([3]; pH 8.0, 36°C, day 3) was 7.0% and the drug dissociation ratio ([3]; pH 8.0, 36°C, day 4) was 8.8%. For the same compound, the drug dissociation ratio ([3]; pH 8.0, 36°C, day 5) was 10.4%, the drug dissociation ratio ([3]; pH 8.0, 36°C, day 6) was 12.6% and the drug dissociation ratio ([3]; pH 8.0, 36°C, day 7) was 14.3%.

Reference: patent publication US20160158369A1, “PHARMACEUTICAL COMPOSITION FOR RESPIRATORY ADMINISTRATION” (SEIKAGAKU CORPORATION, priority 2013, published 2016)
